From US20230270892A1, “CHELATOR COMPOSITIONS FOR RADIOMETALS AND METHODS OF USING SAME” (TRIUMF INC., priority 2020, published 2023)

Assays:
[1] = in vivo; design: species or system mice; conditions: mouse, iv, total radioactivity
Protocol: (§1) At the day of biodistribution mice were injected in the tail vein with ~20 kBq of ^225Accrown-αMSH (range: 10.8-31.6 kBq). […] Blood was collected by cardiac puncture and a full biodistribution performed. Organs were cleaned from blood, weighed and the activity determined using a calibrated gamma counter (Packard Cobra II Auto-gamma counter, Perkin Elmer, Waltham, MA, USA) using three energy windows: 60-120 keV (window A), 180-260 keV (window B), and 400-480 keV (window C). Counting was performed after 6 hours post-sacrifice to ensure equilibrium of the ^225Ac decay chain. Counts were decay corrected from the time of sacrifice and total organ weights were used for the calculation of injected dose per gram of tissue (% ID/g). No differences were noted between the data calculated by three different windows; therefore, the biodistributions are reported using the data acquired using window A. A similar study to Example 5.1 was conducted using ^213Bi instead of ^225Ac.

[2] = system: mice bearing B16F10 tumors; assay: in vivo; conditions: mouse
Protocol: as §1

[3] = in vivo; design: species or system mice; conditions: mouse, iv, total radioactivity; remark: listed apart in the source
Protocol: as §1, with “A. The biological distribution of ^225Ac-crown-TATE was examined by the inventors following” for “A. A”, “similar protocols as described above for” for “similar study to”, “Example 5.1.” for “Example 5.1 was conducted using ^213Bi instead of ^225Ac.”

[4] = Stability of ^225Ac-labelled crown complex left at ambient temperature; assay type: physicochemical; conditions: up to 5 days and up to 8 days in a second experiment
Protocol: The reaction was largely complete after 10 min. […] To obtain the data shown in FIG. 14, labeling with crown was conducted at room temperature for a period of 15 minutes, while labelling with DOTA was conducted at 90° C. for a period of 15 minutes.

Question: Which results are given for `CCCC[C@H](NC(=O)CN1CCC(NC(=O)CN2CCOCCN(CC(=O)O)CCN(CC(=O)O)CCOCCN(CC(=O)O)CC2)CC1)C(=O)N[C@H]1CC(=O)NCCCC[C@@H](C(N)=O)NC(=O)[C@H](Cc2c[nH]c3ccccc23)NC(=O)[C@H](CCCNC(=N)N)NC(=O)[C@@H](Cc2ccccc2)NC(=O)[C@H](Cc2c[nH]cn2)NC1=O` [^213Bi-crown-αMSH, metal not drawn]?
Answer: tissue uptake at 1 h ([1]; Biodistribution: Bladder): 5.48 %ID/g; tissue uptake at 1 h ([1]; Biodistribution: Blood): 0.5 %ID/g; tissue uptake at 1 h ([1]; Biodistribution: Bone): 0.41 %ID/g; excreta dose per gram or mL at 1 h ([1]; Biodistribution: Feces): 0.23 %ID/g; tissue uptake at 1 h ([1]; Biodistribution: Heart): 0.09 %ID/g; tissue uptake at 1 h ([1]; Biodistribution: Kidneys): 6.02 %ID/g; tissue uptake at 1 h ([1]; Biodistribution: Lg Intestine): 0.56 %ID/g; tissue uptake at 1 h ([1]; Biodistribution: Liver): 1.09 %ID/g; tissue uptake at 1 h ([1]; Biodistribution: Lungs): 0.45 %ID/g; tissue uptake at 1 h ([1]; Biodistribution: Muscle): 0.08 %ID/g; tissue uptake at 1 h ([1]; Biodistribution: Pancreas): 0.15 %ID/g; tissue uptake at 1 h ([1]; Biodistribution: Sm Intestine): 0.34 %ID/g; tissue uptake at 1 h ([1]; Biodistribution: Spleen): 0.36 %ID/g; tissue uptake at 1 h ([1]; Biodistribution: Stomach): 0.67 %ID/g; tissue uptake at 1 h ([1]; Biodistribution: Tail): 2.56 %ID/g; tissue uptake at 1 h ([1]; Biodistribution: Thyroids): 0.74 %ID/g; tissue uptake at 1 h ([1]; Biodistribution: Tumour): 5.9 %ID/g; excreta dose per gram or mL at 1 h ([1]; Biodistribution: Urine): 93.2 %ID/g; T/Blood (ratio tumor versus blood) [2]: 12.15; T/Bone (ratio tumor versus bone) [2]: 23.41; T/Kidney (ratio tumor versus kidney) [2]: 0.99; T/Liver (ratio tumor versus liver) [2]: 5.44; T/Muscle (ratio tumor versus muscle) [2]: 84.48

Question: With `C[C@@H](O)[C@H](NC(=O)[C@@H]1CSSC[C@H](NC(=O)[C@@H](Cc2ccccc2)NC(=O)CN2CCOCCN(CC(=O)O)CCN(CC(=O)O)CCOCCN(CC(=O)O)CC2)C(=O)N[C@@H](Cc2ccc(O)cc2)C(=O)N[C@H](Cc2c[nH]c3ccccc23)C(=O)N[C@@H](CCCCN)C(=O)N[C@@H]([C@@H](C)O)C(=O)N1)C(=O)O` [^225Ac-crown-TATE, metal not drawn] as the compound, how does the tissue uptake at 1 h ([3]; Biodistribution: Andrenals) read?
Answer: 1.34 %ID/g

Question: What about the tissue uptake at 4 h ([3]; Biodistribution: Andrenals) of the same compound?
Answer: 1.37 %ID/g

Question: What about the tissue uptake at 24 h ([3]; Biodistribution: Andrenals) of the same compound?
Answer: 1.77 %ID/g

Question: What about the tissue uptake at 72 h ([3]; Biodistribution: Andrenals) of the same compound?
Answer: 1.37 %ID/g

Question: What about the tissue uptake at 1 h ([3]; Biodistribution: Bladder) of the same compound?
Answer: 7.09 %ID/g

Question: What about the tissue uptake at 4 h ([3]; Biodistribution: Bladder) of the same compound?
Answer: 1.04 %ID/g

Question: And the tissue uptake at 24 h ([3]; Biodistribution: Bladder)?
Answer: 0.33 %ID/g

Question: And the tissue uptake at 72 h ([3]; Biodistribution: Bladder)?
Answer: 0.37 %ID/g

Question: And the tissue uptake at 1 h ([3]; Biodistribution: Blood)?
Answer: 0.54 %ID/g

Question: What about the tissue uptake at 4 h ([3]; Biodistribution: Blood) of the same compound?
Answer: 0.09 %ID/g

Question: What about the tissue uptake at 24 h ([3]; Biodistribution: Blood) of the same compound?
Answer: 0.03 %ID/g

Question: And the tissue uptake at 72 h ([3]; Biodistribution: Blood)?
Answer: 0.02 %ID/g

Question: And the tissue uptake at 1 h ([3]; Biodistribution: Bone)?
Answer: 0.35 %ID/g

Question: And the tissue uptake at 4 h ([3]; Biodistribution: Bone)?
Answer: 0.78 %ID/g

Question: What about the tissue uptake at 24 h ([3]; Biodistribution: Bone) of the same compound?
Answer: 0.38 %ID/g

Question: What about the tissue uptake at 72 h ([3]; Biodistribution: Bone) of the same compound?
Answer: 0.78 %ID/g

Question: And the tissue uptake at 1 h ([3]; Biodistribution: Brain)?
Answer: 0.03 %ID/g

Question: What about the tissue uptake at 4 h ([3]; Biodistribution: Brain) of the same compound?
Answer: 0.01 %ID/g

Question: What about the tissue uptake at 24 h ([3]; Biodistribution: Brain) of the same compound?
Answer: 0.01 %ID/g

Question: And the tissue uptake at 72 h ([3]; Biodistribution: Brain)?
Answer: 0.01 %ID/g

Question: And the excreta dose per gram or mL at 1 h ([3]; Biodistribution: Feces)?
Answer: 0.22 %ID/g

Question: And the excreta dose per gram or mL at 4 h ([3]; Biodistribution: Feces)?
Answer: 0.27 %ID/g

Question: And the excreta dose per gram or mL at 24 h ([3]; Biodistribution: Feces)?
Answer: 0.53 %ID/g

Question: What about the excreta dose per gram or mL at 72 h ([3]; Biodistribution: Feces) of the same compound?
Answer: 0.26 %ID/g

Question: And the tissue uptake at 1 h ([3]; Biodistribution: Gallbladder)?
Answer: 0.68 %ID/g

Question: What about the tissue uptake at 4 h ([3]; Biodistribution: Gallbladder) of the same compound?
Answer: 0.52 %ID/g

Question: And the tissue uptake at 24 h ([3]; Biodistribution: Gallbladder)?
Answer: 0.99 %ID/g

Question: What about the tissue uptake at 72 h ([3]; Biodistribution: Gallbladder) of the same compound?
Answer: 1.25 %ID/g

Question: And the tissue uptake at 1 h ([3]; Biodistribution: Heart)?
Answer: 0.32 %ID/g

Question: What about the tissue uptake at 4 h ([3]; Biodistribution: Heart) of the same compound?
Answer: 0.15 %ID/g

Question: And the tissue uptake at 24 h ([3]; Biodistribution: Heart)?
Answer: 0.18 %ID/g

Question: And the tissue uptake at 72 h ([3]; Biodistribution: Heart)?
Answer: 0.19 %ID/g

Question: And the tissue uptake at 1 h ([3]; Biodistribution: Kidneys)?
Answer: 20 %ID/g

Question: What about the tissue uptake at 4 h ([3]; Biodistribution: Kidneys) of the same compound?
Answer: 20.7 %ID/g

Question: What about the tissue uptake at 24 h ([3]; Biodistribution: Kidneys) of the same compound?
Answer: 11.5 %ID/g

Question: What about the tissue uptake at 72 h ([3]; Biodistribution: Kidneys) of the same compound?
Answer: 7.09 %ID/g

Question: What about the tissue uptake at 1 h ([3]; Biodistribution: Lg Intestine) of the same compound?
Answer: 1.55 %ID/g

Question: And the tissue uptake at 4 h ([3]; Biodistribution: Lg Intestine)?
Answer: 1.58 %ID/g

Question: What about the tissue uptake at 24 h ([3]; Biodistribution: Lg Intestine) of the same compound?
Answer: 1.31 %ID/g

Question: What about the tissue uptake at 72 h ([3]; Biodistribution: Lg Intestine) of the same compound?
Answer: 1.02 %ID/g

Question: And the tissue uptake at 1 h ([3]; Biodistribution: Liver)?
Answer: 1.38 %ID/g

Question: What about the tissue uptake at 4 h ([3]; Biodistribution: Liver) of the same compound?
Answer: 1 %ID/g

Question: And the tissue uptake at 24 h ([3]; Biodistribution: Liver)?
Answer: 1.77 %ID/g

Question: What about the tissue uptake at 72 h ([3]; Biodistribution: Liver) of the same compound?
Answer: 2.43 %ID/g

Question: What about the tissue uptake at 1 h ([3]; Biodistribution: Lungs) of the same compound?
Answer: 3.4 %ID/g

Question: What about the tissue uptake at 4 h ([3]; Biodistribution: Lungs) of the same compound?
Answer: 3.37 %ID/g

Question: What about the tissue uptake at 24 h ([3]; Biodistribution: Lungs) of the same compound?
Answer: 2.31 %ID/g

Question: And the tissue uptake at 72 h ([3]; Biodistribution: Lungs)?
Answer: 2 %ID/g

Question: And the tissue uptake at 1 h ([3]; Biodistribution: Muscle)?
Answer: 0.1 %ID/g

Question: And the tissue uptake at 4 h ([3]; Biodistribution: Muscle)?
Answer: 0.02 %ID/g

Question: And the tissue uptake at 24 h ([3]; Biodistribution: Muscle)?
Answer: 0.02 %ID/g

Question: And the tissue uptake at 72 h ([3]; Biodistribution: Muscle)?
Answer: 0.04 %ID/g

Question: What about the tissue uptake at 1 h ([3]; Biodistribution: Pancreas) of the same compound?
Answer: 4.39 %ID/g

Question: What about the tissue uptake at 4 h ([3]; Biodistribution: Pancreas) of the same compound?
Answer: 3.24 %ID/g

Question: And the tissue uptake at 24 h ([3]; Biodistribution: Pancreas)?
Answer: 1.22 %ID/g

Question: And the tissue uptake at 72 h ([3]; Biodistribution: Pancreas)?
Answer: 1.07 %ID/g

Question: And the tissue uptake at 1 h ([3]; Biodistribution: Sm Intestine)?
Answer: 0.88 %ID/g

Question: And the tissue uptake at 4 h ([3]; Biodistribution: Sm Intestine)?
Answer: 0.74 %ID/g

Question: What about the tissue uptake at 24 h ([3]; Biodistribution: Sm Intestine) of the same compound?
Answer: 0.51 %ID/g

Question: And the tissue uptake at 72 h ([3]; Biodistribution: Sm Intestine)?
Answer: 0.49 %ID/g

Question: What about the tissue uptake at 1 h ([3]; Biodistribution: Spleen) of the same compound?
Answer: 0.48 %ID/g

Question: And the tissue uptake at 4 h ([3]; Biodistribution: Spleen)?
Answer: 0.36 %ID/g

Question: What about the tissue uptake at 24 h ([3]; Biodistribution: Spleen) of the same compound?
Answer: 0.23 %ID/g

Question: And the tissue uptake at 72 h ([3]; Biodistribution: Spleen)?
Answer: 0.35 %ID/g

Question: What about the tissue uptake at 1 h ([3]; Biodistribution: Stomach) of the same compound?
Answer: 5.04 %ID/g

Question: And the tissue uptake at 4 h ([3]; Biodistribution: Stomach)?
Answer: 3.7 %ID/g

Question: What about the tissue uptake at 24 h ([3]; Biodistribution: Stomach) of the same compound?
Answer: 2.75 %ID/g

Question: And the tissue uptake at 72 h ([3]; Biodistribution: Stomach)?
Answer: 2.25 %ID/g

Question: And the tissue uptake at 1 h ([3]; Biodistribution: Tail)?
Answer: 1.56 %ID/g

Question: And the tissue uptake at 4 h ([3]; Biodistribution: Tail)?
Answer: 0.42 %ID/g

Question: What about the tissue uptake at 24 h ([3]; Biodistribution: Tail) of the same compound?
Answer: 0.35 %ID/g

Question: And the tissue uptake at 72 h ([3]; Biodistribution: Tail)?
Answer: 0.34 %ID/g

Question: What about the tissue uptake at 1 h ([3]; Biodistribution: Tumour) of the same compound?
Answer: 5.86 %ID/g

Question: And the tissue uptake at 4 h ([3]; Biodistribution: Tumour)?
Answer: 5.15 %ID/g

Question: What about the tissue uptake at 24 h ([3]; Biodistribution: Tumour) of the same compound?
Answer: 5.7 %ID/g

Question: What about the tissue uptake at 72 h ([3]; Biodistribution: Tumour) of the same compound?
Answer: 4.97 %ID/g

Question: What about the excreta dose per gram or mL at 1 h ([3]; Biodistribution: Urine) of the same compound?
Answer: 108 %ID/g

Question: And the excreta dose per gram or mL at 4 h ([3]; Biodistribution: Urine)?
Answer: 13.2 %ID/g

Question: What about the excreta dose per gram or mL at 24 h ([3]; Biodistribution: Urine) of the same compound?
Answer: 0.87 %ID/g

Question: And the excreta dose per gram or mL at 72 h ([3]; Biodistribution: Urine)?
Answer: 0.2 %ID/g

Question: For `O=C(O)CN1CCOCCN(CC(=O)O)CCN(CC(=O)O)CCOCCN(CC(=O)O)CC1` [crown, 2,2’,2”,2’”-(1,10-dioxa-4,7,13,16-tetraazacyclooctadecane-4,7,13,16-tetrayl)tetraacetic acid], which “free ^225Ac observed” value [4] is on record?
Answer: < 2%
